Reference: patent US20220356258A1 (Boehringer Ingelheim, published 2022)

Columns and labels:
FcRn = biological target: T1, FcRn (Homo sapiens (Human), UniProt P55899 24-297; P61769 21-119); test: SPR, FcRn binding
T1 construct: In nature it is a heterodimer of the FcRn alpha chain and beta-2-microglobulin; also called neonatal Fc receptor; copies: 1 + 1

IL-36 receptor (IL-36R) [1] = biological target: T2, IL-36 receptor (IL-36R) (UniProt Q9HB29 20-335, limits assumed); test: cell-based or functional assay
T2 sequence (looked up): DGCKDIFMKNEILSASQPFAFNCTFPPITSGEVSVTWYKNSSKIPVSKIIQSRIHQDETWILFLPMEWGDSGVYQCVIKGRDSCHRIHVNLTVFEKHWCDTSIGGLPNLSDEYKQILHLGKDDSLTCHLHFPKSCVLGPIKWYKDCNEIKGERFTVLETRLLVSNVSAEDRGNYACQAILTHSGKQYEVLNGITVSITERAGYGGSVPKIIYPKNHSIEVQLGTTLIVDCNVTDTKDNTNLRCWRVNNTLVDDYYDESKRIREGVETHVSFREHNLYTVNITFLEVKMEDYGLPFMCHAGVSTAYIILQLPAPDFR

[2] = biological target: T3, protein A/G (immobilized on the SPR sensor chip); test: SPR, first step: capture on protein A/G immobilized on the sensor chip
T3 construct: Capture protein in the first step of the IL36R SPR assay; also called protein A/G sensor chip

IL-36 receptor (IL-36R) [3] = biological target: T2, IL-36 receptor (IL-36R); test: SPR, second step: IL36R binding activity of the species bound to protein A/G

T1 sequence (P55899 24-297 limits assumed, form in doubt, chain 1 of 2): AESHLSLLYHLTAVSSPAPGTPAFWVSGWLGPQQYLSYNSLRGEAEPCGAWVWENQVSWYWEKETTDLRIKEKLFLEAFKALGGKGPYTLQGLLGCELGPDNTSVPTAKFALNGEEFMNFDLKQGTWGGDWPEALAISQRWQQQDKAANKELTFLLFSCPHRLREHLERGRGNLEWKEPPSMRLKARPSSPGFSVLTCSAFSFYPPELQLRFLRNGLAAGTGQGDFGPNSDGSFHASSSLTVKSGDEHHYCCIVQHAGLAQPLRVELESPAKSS
T1 sequence (P61769 21-119 limits assumed, form in doubt, chain 2 of 2): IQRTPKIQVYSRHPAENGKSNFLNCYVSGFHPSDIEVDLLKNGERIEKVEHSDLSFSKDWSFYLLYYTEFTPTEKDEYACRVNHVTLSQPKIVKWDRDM

Binder	Binding [%] (FcRn binding, SPR) (FcRn)	IL36R bioassay Potency [%] (IL-36 receptor (IL-36R) [1])	Recovery [%] (amount of species binding to protein A/G) [2]	Potency [%] (IL36R binding, SPR) (IL-36 receptor (IL-36R) [3])
Spesolimab AP4 fraction (CEX acidic peak fraction AP4) (antibody, human IgG1, kappa, L234A L235A, Humanized IgG1 anti-IL-36R antibody from CHO-DG44 cells; Cation exchange fraction, RT 16.0-18.7 min, 0.5% of total CEX area; also called most acidic fraction AP4) heavy: not shown light: QIVLTQSPGTLSLSPGERATMTCTASSSVSSSYFHWYQQKPGQAPRLWIYRTSRLASGVPDRFSGSGSGTDFTLTISRLEPEDAATYYCHQFHRSPLTFGAGTKLEIKRTVAAPSVFIFPPSDEQLKSGTASVVCLLNNFYPREAKVQWKVDNALQSGNSQESVTEQDSKDSTYSLSSTLTLSKADYEKHKVYACEVTHQGLSSPVTKSFNRGEC	69	60	75	93
Spesolimab MP fraction (CEX main peak fraction) (antibody, human IgG1, kappa, L234A L235A, IgG1) heavy: not shown light: QIVLTQSPGTLSLSPGERATMTCTASSSVSSSYFHWYQQKPGQAPRLWIYRTSRLASGVPDRFSGSGSGTDFTLTISRLEPEDAATYYCHQFHRSPLTFGAGTKLEIKRTVAAPSVFIFPPSDEQLKSGTASVVCLLNNFYPREAKVQWKVDNALQSGNSQESVTEQDSKDSTYSLSSTLTLSKADYEKHKVYACEVTHQGLSSPVTKSFNRGEC	95	110	95	102
Spesolimab BP2 fraction (CEX basic peak fraction BP2) (antibody, human IgG1, kappa, L234A L235A, IgG1; Cation exchange fraction, RT 31.7-33.5 min, 2.4% of total CEX area) heavy: not shown light: QIVLTQSPGTLSLSPGERATMTCTASSSVSSSYFHWYQQKPGQAPRLWIYRTSRLASGVPDRFSGSGSGTDFTLTISRLEPEDAATYYCHQFHRSPLTFGAGTKLEIKRTVAAPSVFIFPPSDEQLKSGTASVVCLLNNFYPREAKVQWKVDNALQSGNSQESVTEQDSKDSTYSLSSTLTLSKADYEKHKVYACEVTHQGLSSPVTKSFNRGEC	91	97	84	100
Spesolimab AP1a fraction (CEX acidic peak fraction AP1a) (antibody, human IgG1, kappa, L234A L235A, IgG1; Cation exchange fraction, RT 27.3-28.2 min, 13.6% of total CEX area) heavy: not shown light: QIVLTQSPGTLSLSPGERATMTCTASSSVSSSYFHWYQQKPGQAPRLWIYRTSRLASGVPDRFSGSGSGTDFTLTISRLEPEDAATYYCHQFHRSPLTFGAGTKLEIKRTVAAPSVFIFPPSDEQLKSGTASVVCLLNNFYPREAKVQWKVDNALQSGNSQESVTEQDSKDSTYSLSSTLTLSKADYEKHKVYACEVTHQGLSSPVTKSFNRGEC	92	102	93	99
Spesolimab BP1 fraction (CEX basic peak fraction BP1) (antibody, human IgG1, kappa, L234A L235A, IgG1; Cation exchange fraction, RT 30.2-31.7 min, 3.75% of total CEX area) heavy: not shown light: QIVLTQSPGTLSLSPGERATMTCTASSSVSSSYFHWYQQKPGQAPRLWIYRTSRLASGVPDRFSGSGSGTDFTLTISRLEPEDAATYYCHQFHRSPLTFGAGTKLEIKRTVAAPSVFIFPPSDEQLKSGTASVVCLLNNFYPREAKVQWKVDNALQSGNSQESVTEQDSKDSTYSLSSTLTLSKADYEKHKVYACEVTHQGLSSPVTKSFNRGEC	95	97	93	100
Spesolimab AP2 fraction (CEX acidic peak fraction AP2) (antibody, human IgG1, kappa, L234A L235A, IgG1; Cation exchange fraction, RT 22.7-24.1 min, 2.4% of total CEX area) heavy: not shown light: QIVLTQSPGTLSLSPGERATMTCTASSSVSSSYFHWYQQKPGQAPRLWIYRTSRLASGVPDRFSGSGSGTDFTLTISRLEPEDAATYYCHQFHRSPLTFGAGTKLEIKRTVAAPSVFIFPPSDEQLKSGTASVVCLLNNFYPREAKVQWKVDNALQSGNSQESVTEQDSKDSTYSLSSTLTLSKADYEKHKVYACEVTHQGLSSPVTKSFNRGEC		94	90	99
Spesolimab AP1b fraction (CEX acidic peak fraction AP1b) (antibody, human IgG1, kappa, L234A L235A, IgG1; Cation exchange fraction, RT 26.0-27.3 min, 7.6% of total CEX area) heavy: not shown light: QIVLTQSPGTLSLSPGERATMTCTASSSVSSSYFHWYQQKPGQAPRLWIYRTSRLASGVPDRFSGSGSGTDFTLTISRLEPEDAATYYCHQFHRSPLTFGAGTKLEIKRTVAAPSVFIFPPSDEQLKSGTASVVCLLNNFYPREAKVQWKVDNALQSGNSQESVTEQDSKDSTYSLSSTLTLSKADYEKHKVYACEVTHQGLSSPVTKSFNRGEC	89	99	92	100
Spesolimab AP3b fraction (CEX acidic peak fraction AP3b) (antibody, human IgG1, kappa, L234A L235A, IgG1; Cation exchange fraction, RT 18.7-20.6 min, 0.8% of total CEX area) heavy: not shown light: QIVLTQSPGTLSLSPGERATMTCTASSSVSSSYFHWYQQKPGQAPRLWIYRTSRLASGVPDRFSGSGSGTDFTLTISRLEPEDAATYYCHQFHRSPLTFGAGTKLEIKRTVAAPSVFIFPPSDEQLKSGTASVVCLLNNFYPREAKVQWKVDNALQSGNSQESVTEQDSKDSTYSLSSTLTLSKADYEKHKVYACEVTHQGLSSPVTKSFNRGEC	84	80	87	93
Spesolimab AP3a fraction (CEX acidic peak fraction AP3a) (antibody, human IgG1, kappa, L234A L235A, IgG1; Cation exchange fraction, RT 20.6-22.7 min, 2.8% of total CEX area) heavy: not shown light: QIVLTQSPGTLSLSPGERATMTCTASSSVSSSYFHWYQQKPGQAPRLWIYRTSRLASGVPDRFSGSGSGTDFTLTISRLEPEDAATYYCHQFHRSPLTFGAGTKLEIKRTVAAPSVFIFPPSDEQLKSGTASVVCLLNNFYPREAKVQWKVDNALQSGNSQESVTEQDSKDSTYSLSSTLTLSKADYEKHKVYACEVTHQGLSSPVTKSFNRGEC	88	91	88	98
Spesolimab AP1c fraction (CEX acidic peak fraction AP1c) (antibody, human IgG1, kappa, L234A L235A, IgG1; Cation exchange fraction, RT 24.1-26.0 min, 2.2% of total CEX area) heavy: not shown light: QIVLTQSPGTLSLSPGERATMTCTASSSVSSSYFHWYQQKPGQAPRLWIYRTSRLASGVPDRFSGSGSGTDFTLTISRLEPEDAATYYCHQFHRSPLTFGAGTKLEIKRTVAAPSVFIFPPSDEQLKSGTASVVCLLNNFYPREAKVQWKVDNALQSGNSQESVTEQDSKDSTYSLSSTLTLSKADYEKHKVYACEVTHQGLSSPVTKSFNRGEC	90	102	90	100
Spesolimab CMC2 source (Drug Substance source material, unfractionated) (antibody, human IgG1, kappa, L234A L235A, Humanized monoclonal IgG1 anti-IL-36R antibody, CAS 2097104-58-8, produced in CHO-DG44 cells; This is the unfractionated material from which the CEX fractions were collected) heavy: not shown light: QIVLTQSPGTLSLSPGERATMTCTASSSVSSSYFHWYQQKPGQAPRLWIYRTSRLASGVPDRFSGSGSGTDFTLTISRLEPEDAATYYCHQFHRSPLTFGAGTKLEIKRTVAAPSVFIFPPSDEQLKSGTASVVCLLNNFYPREAKVQWKVDNALQSGNSQESVTEQDSKDSTYSLSSTLTLSKADYEKHKVYACEVTHQGLSSPVTKSFNRGEC	94	91	93	101
Spesolimab BP3 fraction (CEX basic peak fraction BP3) (antibody, human IgG1, kappa, L234A L235A, IgG1; Cation exchange fraction, RT 33.5-36.2 min, 1.3% of total CEX area; also called most basic fraction BP3) heavy: not shown light: QIVLTQSPGTLSLSPGERATMTCTASSSVSSSYFHWYQQKPGQAPRLWIYRTSRLASGVPDRFSGSGSGTDFTLTISRLEPEDAATYYCHQFHRSPLTFGAGTKLEIKRTVAAPSVFIFPPSDEQLKSGTASVVCLLNNFYPREAKVQWKVDNALQSGNSQESVTEQDSKDSTYSLSSTLTLSKADYEKHKVYACEVTHQGLSSPVTKSFNRGEC			70	100
